Experimental data published in patent publication US12228572B2, “Enhanced expression of polo-like kinase 3 (PLK3) in human immunodeficiency virus (HIV)-infected cells” (priority 2021, dated 2025).
Values joined by “and” are separate entries in the source; they are usually repeats but may differ in a detail not shown here. Equal entries are not always repeated.

What was measured:
HIV-1BaL = assay: Infectivity of supernatant from transfected 293T cells treated with pBaL, on TZM-bl cells; format: cell-based; conditions: 48 hours after transfection
HIV-2ROD = assay: Infectivity of supernatant from transfected 293T cells treated with pHIV-2ROD, on TZM-bl cells; format: cell-based; conditions: 48 hours after transfection
HIV-1 [1] = conditions: overexpression of the PLK3 protein
Description: Specific test steps are as follows. All RNAs were extracted for qPCR to measure the Gag transcription level of HIV-1 (FIG. 4). Cells were collected for a flow cytometry test, and the expression level of an HIV-1 p24 protein was detected by using specific antibodies (FIG. 5).

SIVagm = assay: Infectivity of supernatant from transfected 293T cells treated with pSIVagm, on TZM-bl cells; format: cell-based; conditions: 48 hours after transfection
HIV-1AD8 = assay: Infectivity of supernatant from transfected 293T cells treated with pAD8, on TZM-bl cells; format: cell-based; conditions: 48 hours after transfection
HIV-1 [2] = test system: HIV-1
HIV-1 [3] = conditions: overexpression of the PLK3 protein; remark: listed apart in the source
HIV-189.6 = assay: Infectivity of supernatant from transfected 293T cells treated with p89.6, on TZM-bl cells; format: cell-based; conditions: 48 hours after transfection
HIV-1 [4] = test system: HIV-1; remark: listed apart in the source
hepatitis B virus (HBV) = assay: HBs ELISA of HBV virus particles in supernatant of 293T cells treated with HBV replicator; format: cell-based; conditions: overexpression in 293T cells, HBV driven by CMV promoter, 48 hours
HIV-1 [5] = conditions: overexpression of the PLK3 protein; remark: listed apart in the source

B1: PLK3 protein: human PLK3 protein overexpressed from a 3× FLAG-labeled PLK3 protein expression vector (protein, UniProt Q9H4B4 1-646, looked up)
chain: MEPAAGFLSPRPFQRAAAAPAPPAGPGPPPSALRGPELEMLAGLPTSDPGRLITDPRSGRTYLKGRLLGKGGFARCYEATDTETGSAYAVKVIPQSRVAKPHQREKILNEIELHRDLQHRHIVRFSHHFEDADNIYIFLELCSRKSLAHIWKARHTLLEPEVRYYLRQILSGLKYLHQRGILHRDLKLGNFFITENMELKVGDFGLAARLEPPEQRKKTICGTPNYVAPEVLLRQGHGPEADVWSLGCVMYTLLCGSPPFETADLKETYRCIKQVHYTLPASLSLPARQLLAAILRASPRDRPSIDQILRHDFFTKGYTPDRLPISSCVTVPDLTPPNPARSLFAKVTKSLFGRKKKSKNHAQERDEVSGLVSGLMRTSVGHQDARPEAPAASGPAPVSLVETAPEDSSPRGTLASSGDGFEEGLTVATVVESALCALRNCIAFMPPAEQNPAPLAQPEPLVWVSKWVDYSNKFGFGYQLSSRRVAVLFNDGTHMALSANRKTVHYNPTSTKHFSFSVGAVPRALQPQLGILRYFASYMEQHLMKGGDLPSVEEVEVPAPPLLLQWVKTDQALLMLFSDGTVQVNFYGDHTKLILSGWEPLLVTFVARNRSACTYLASHLRQLGCSPDLRQRLRYALRLLRDRSPA
modifications: full-length 3xFLAG tag
notes: human PLK3 protein overexpressed from a 3× FLAG-labeled PLK3 protein expression vector
ability to limit infection with HIV-1BaL (HIV-1BaL): has an ability to limit infection
ability to limit infection with HIV-2ROD (HIV-2ROD): has an ability to limit infection
transcription level of virus Gag in cells (HIV-1 [1]): not affected
virus Gag protein level (HIV-1 [1]): obviously reduced
ability to limit infection with SIVagm (SIVagm): has an ability to limit infection
ability to limit infection with HIV-1AD8 (HIV-1AD8): has an ability to limit infection
HIV infectivity reduced to fraction of original level (HIV-1 [2]; 293T cells with vs without PLK3 protein expression, maximum reduction, 48 hours after transfection): about 1/150
HIV-1 infectivity as fraction of that of the negative control group (HIV-1 [2]; different expression amounts, 293T cells, pNL4.3, 48 hours): 1/11 and 1/115
content of core antigen p24 of virus particles in cultured supernatant (HIV-1 [3]): greatly decreased
ability to limit infection with HIV-189.6 (HIV-189.6): has an ability to limit infection
ability to block HIV-1 infection (HIV-1 [4]): extremely strong ability to block HIV-1 infection
replication and release of the HBV (hepatitis B virus (HBV)): not affected
content of genomic RNA of the virus particles in cultured supernatant (HIV-1 [5]): greatly decreased
